Experimental data from patent US20150344570A1 (published 2015).

T1: FcγRIIb (human, UniProt P31994 43-217)
T1 construct: extracellular domain; also called FcgRIIb; 2b
T1 sequence (looked up): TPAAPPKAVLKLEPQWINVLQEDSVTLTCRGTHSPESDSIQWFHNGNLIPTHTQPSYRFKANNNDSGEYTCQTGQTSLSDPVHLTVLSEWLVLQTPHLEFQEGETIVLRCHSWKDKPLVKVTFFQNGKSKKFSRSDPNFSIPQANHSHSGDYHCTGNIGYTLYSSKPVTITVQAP


Key:
FcγRIIIa = molecular target: T2, FcγRIIIa (human, UniProt P08637 17-208); experiment: SPR (Biacore), relative binding
T2 construct: extracellular domain; also called FcgRIIIa; 3a
T2 sequence (P08637 17-208): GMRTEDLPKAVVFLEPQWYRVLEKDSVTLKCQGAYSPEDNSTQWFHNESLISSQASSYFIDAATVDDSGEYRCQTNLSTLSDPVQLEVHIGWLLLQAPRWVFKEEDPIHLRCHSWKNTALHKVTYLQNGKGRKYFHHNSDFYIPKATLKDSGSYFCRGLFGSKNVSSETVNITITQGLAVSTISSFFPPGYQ

FcγRIIb = molecular target: T1, FcγRIIb; experiment: SPR (Biacore), relative binding

He/Con_3a (FcγRIIIa)	He/Con_2b (FcγRIIb)	Binder
28.7 % of GpH7-A5/GpH7-B3/GpL16-k0	171 % of GpH7-A5/GpH7-B3/GpL16-k0	GpH7-A5/GpH7-B3 variant N325_07I/GpL16-k0 (antibody, human IgG1, kappa, mutation in the GpH7-B3 chain only; also called He Ab) heavy 1: not shown heavy 2: not shown light: DIVMTQSPLSLPVTPGEPASISCQASESLVHSNRNTYLHWYLQKPGQSPQLLIYKVSNRFSGVPDRFSGSGSGTDFTLKISRVEAEDVGVYYCSQNTHVPPTFGQGTKVEIERTVAAPSVFIFPPSDEQLKSGTASVVCLLNNFYPREAKVQWKVDNALQSGNSQESVTEQDSKDSTYSLSSTLTLSKADYEKHKVYACEVTHQGLSSPVTKSFNRGEC
33.3 % of GpH7-A5/GpH7-B3/GpL16-k0	197 % of GpH7-A5/GpH7-B3/GpL16-k0	GpH7-A5/GpH7-B3 variant N325_08L/GpL16-k0 (antibody, human IgG1, kappa, mutation in the GpH7-B3 chain only; also called He Ab) heavy 1: not shown heavy 2: not shown light: DIVMTQSPLSLPVTPGEPASISCQASESLVHSNRNTYLHWYLQKPGQSPQLLIYKVSNRFSGVPDRFSGSGSGTDFTLKISRVEAEDVGVYYCSQNTHVPPTFGQGTKVEIERTVAAPSVFIFPPSDEQLKSGTASVVCLLNNFYPREAKVQWKVDNALQSGNSQESVTEQDSKDSTYSLSSTLTLSKADYEKHKVYACEVTHQGLSSPVTKSFNRGEC
77.3 % of GpH7-A5/GpH7-B3/GpL16-k0	110 % of GpH7-A5/GpH7-B3/GpL16-k0	GpH7-A5/GpH7-B3 variant P331_04F/GpL16-k0 (antibody, human IgG1, kappa, mutation in the GpH7-B3 chain only; also called He Ab) heavy 1: not shown heavy 2: not shown light: DIVMTQSPLSLPVTPGEPASISCQASESLVHSNRNTYLHWYLQKPGQSPQLLIYKVSNRFSGVPDRFSGSGSGTDFTLKISRVEAEDVGVYYCSQNTHVPPTFGQGTKVEIERTVAAPSVFIFPPSDEQLKSGTASVVCLLNNFYPREAKVQWKVDNALQSGNSQESVTEQDSKDSTYSLSSTLTLSKADYEKHKVYACEVTHQGLSSPVTKSFNRGEC
74.8 % of GpH7-A5/GpH7-B3/GpL16-k0	102 % of GpH7-A5/GpH7-B3/GpL16-k0	GpH7-A5/GpH7-B3 variant P331_06M/GpL16-k0 (antibody, human IgG1, kappa, mutation in the GpH7-B3 chain only; also called He Ab) heavy 1: not shown heavy 2: not shown light: DIVMTQSPLSLPVTPGEPASISCQASESLVHSNRNTYLHWYLQKPGQSPQLLIYKVSNRFSGVPDRFSGSGSGTDFTLKISRVEAEDVGVYYCSQNTHVPPTFGQGTKVEIERTVAAPSVFIFPPSDEQLKSGTASVVCLLNNFYPREAKVQWKVDNALQSGNSQESVTEQDSKDSTYSLSSTLTLSKADYEKHKVYACEVTHQGLSSPVTKSFNRGEC
65.1 % of GpH7-A5/GpH7-B3/GpL16-k0	177 % of GpH7-A5/GpH7-B3/GpL16-k0	GpH7-A5/GpH7-B3 variant N325_13S/GpL16-k0 (antibody, human IgG1, kappa, mutation in the GpH7-B3 chain only; also called He Ab) heavy 1: not shown heavy 2: not shown light: DIVMTQSPLSLPVTPGEPASISCQASESLVHSNRNTYLHWYLQKPGQSPQLLIYKVSNRFSGVPDRFSGSGSGTDFTLKISRVEAEDVGVYYCSQNTHVPPTFGQGTKVEIERTVAAPSVFIFPPSDEQLKSGTASVVCLLNNFYPREAKVQWKVDNALQSGNSQESVTEQDSKDSTYSLSSTLTLSKADYEKHKVYACEVTHQGLSSPVTKSFNRGEC
31.4 % of GpH7-A5/GpH7-B3/GpL16-k0	217 % of GpH7-A5/GpH7-B3/GpL16-k0	GpH7-A5/GpH7-B3 variant N325_06M/GpL16-k0 (antibody, human IgG1, kappa, mutation in the GpH7-B3 chain only; also called He Ab) heavy 1: not shown heavy 2: not shown light: DIVMTQSPLSLPVTPGEPASISCQASESLVHSNRNTYLHWYLQKPGQSPQLLIYKVSNRFSGVPDRFSGSGSGTDFTLKISRVEAEDVGVYYCSQNTHVPPTFGQGTKVEIERTVAAPSVFIFPPSDEQLKSGTASVVCLLNNFYPREAKVQWKVDNALQSGNSQESVTEQDSKDSTYSLSSTLTLSKADYEKHKVYACEVTHQGLSSPVTKSFNRGEC
81.9 % of GpH7-A5/GpH7-B3/GpL16-k0	114 % of GpH7-A5/GpH7-B3/GpL16-k0	GpH7-A5/GpH7-B3 variant P331_15Y/GpL16-k0 (antibody, human IgG1, kappa, mutation in the GpH7-B3 chain only; also called He Ab) heavy 1: not shown heavy 2: not shown light: DIVMTQSPLSLPVTPGEPASISCQASESLVHSNRNTYLHWYLQKPGQSPQLLIYKVSNRFSGVPDRFSGSGSGTDFTLKISRVEAEDVGVYYCSQNTHVPPTFGQGTKVEIERTVAAPSVFIFPPSDEQLKSGTASVVCLLNNFYPREAKVQWKVDNALQSGNSQESVTEQDSKDSTYSLSSTLTLSKADYEKHKVYACEVTHQGLSSPVTKSFNRGEC
80.2 % of GpH7-A5/GpH7-B3/GpL16-k0	116 % of GpH7-A5/GpH7-B3/GpL16-k0	GpH7-A5/GpH7-B3 variant P331_16H/GpL16-k0 (antibody, human IgG1, kappa, mutation in the GpH7-B3 chain only; also called He Ab) heavy 1: not shown heavy 2: not shown light: DIVMTQSPLSLPVTPGEPASISCQASESLVHSNRNTYLHWYLQKPGQSPQLLIYKVSNRFSGVPDRFSGSGSGTDFTLKISRVEAEDVGVYYCSQNTHVPPTFGQGTKVEIERTVAAPSVFIFPPSDEQLKSGTASVVCLLNNFYPREAKVQWKVDNALQSGNSQESVTEQDSKDSTYSLSSTLTLSKADYEKHKVYACEVTHQGLSSPVTKSFNRGEC
75.1 % of GpH7-A5/GpH7-B3/GpL16-k0	116 % of GpH7-A5/GpH7-B3/GpL16-k0	GpH7-A5/GpH7-B3 variant P331_10E/GpL16-k0 (antibody, human IgG1, kappa, mutation in the GpH7-B3 chain only; also called He Ab) heavy 1: not shown heavy 2: not shown light: DIVMTQSPLSLPVTPGEPASISCQASESLVHSNRNTYLHWYLQKPGQSPQLLIYKVSNRFSGVPDRFSGSGSGTDFTLKISRVEAEDVGVYYCSQNTHVPPTFGQGTKVEIERTVAAPSVFIFPPSDEQLKSGTASVVCLLNNFYPREAKVQWKVDNALQSGNSQESVTEQDSKDSTYSLSSTLTLSKADYEKHKVYACEVTHQGLSSPVTKSFNRGEC
94.8 % of GpH7-A5/GpH7-B3/GpL16-k0	104 % of GpH7-A5/GpH7-B3/GpL16-k0	GpH7-A5/GpH7-B3 variant S337_07I/GpL16-k0 (antibody, human IgG1, kappa, mutation in the GpH7-B3 chain only; also called He Ab) heavy 1: not shown heavy 2: not shown light: DIVMTQSPLSLPVTPGEPASISCQASESLVHSNRNTYLHWYLQKPGQSPQLLIYKVSNRFSGVPDRFSGSGSGTDFTLKISRVEAEDVGVYYCSQNTHVPPTFGQGTKVEIERTVAAPSVFIFPPSDEQLKSGTASVVCLLNNFYPREAKVQWKVDNALQSGNSQESVTEQDSKDSTYSLSSTLTLSKADYEKHKVYACEVTHQGLSSPVTKSFNRGEC
